The molecules below were run on HEK293FT cells transfected with TF library (assay: Screening of TF condensates based on fluorescent puncta). Conditions: Figure 1B numerical data; TF library screen, one value per transcriptional factor.
Format: cell-based
Summary of the method: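 HEK293FT cells were reverse-transfected with Flag- or GAL4-tagged TF plasmids (1.6 μg/ml, PEI). After 60 h, cells were cultured 12 h with or without glucose, then fixed and immunostained with anti-Flag or anti-GAL4 and Alexa 488 secondaries. Fluorescent puncta were imaged over fifty random fields per well by high-content imaging.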

Molecule	Z score of condensed fraction
CJUN (protein, UniProt P05412 1-331, looked up) Transcription factor Jun: MTAKMETTFYDDALNASFLPSESGPYGYSNPKILKQSMTLNLADPVGSLKPHLRAKNSDLLTSPDVGLLKLASPELERLIIQSSNGHITTTPTPTQFLCPKNVTDEQEGFAEGFVRALAELHSQNTLPSVTSAAQPVNGAGMVAPAVASVAGGSGSGGFSASLHSEPPVYANLSNFNPGALSSGGGAPSYGAAGLAFPAQPQQQQQPPHHLPQQMPVQHPRLQALKEEPQTVPEMPGETPPLSPIDMESQERIKAERKRMRNRIAASKCRKRKLERIARLEEKVKTLKAQNSELASTANMLREQVAQLKQKVMNHVNSGCQLMLTQQLQTF	2.466
CLOCK (protein, UniProt O15516 1-846, looked up) Circadian locomoter output …: MLFTVSCSKMSSIVDRDDSSIFDGLVEEDDKDKAKRVSRNKSEKKRRDQFNVLIKELGSMLPGNARKMDKSTVLQKSIDFLRKHKEITAQSDASEIRQDWKPTFLSNEEFTQLMLEALDGFFLAIMTDGSIIYVSESVTSLLEHLPSDLVDQSIFNFIPEGEHSEVYKILSTHLLESDSLTPEYLKSKNQLEFCCHMLRGTIDPKEPSTYEYVKFIGNFKSLNSVSSSAHNGFEGTIQRTHRPSYEDRVCFVATVRLATPQFIKEMCTVEEPNEEFTSRHSLEWKFLFLDHRAPPIIGYLPFEVLGTSGYDYYHVDDLENLAKCHEHLMQYGKGKSCYYRFLTKGQQWIWLQTHYYITYHQWNSRPEFIVCTHTVVSYAEVRAERRRELGIEESLPETAADKSQDSGSDNRINTVSLKEALERFDHSPTPSASSRSSRKSSHTAVSDPSSTPTKIPTDTSTPPRQHLPAHEKMVQRRSSFSSQSINSQSVGSSLTQPVMSQATNLPIPQGMSQFQFSAQLGAMQHLKDQLEQRTRMIEANIHRQQEELRKIQEQLQMVHGQGLQMFLQQSNPGLNFGSVQLSSGNSSNIQQLAPINMQGQVVPTNQIQSGMNTGHIGTTQHMIQQQTLQSTSTQSQQNVLSGHSQQTSLPSQTQSTLTAPLYNTMVISQPAAGSMVQIPSSMPQNSTQSAAVTTFTQDRQIRFSQGQQLVTKLVTAPVACGAVMVPSTMLMGQVVTAYPTFATQQQQSQTLSVTQQQQQQSSQEQQLTSVQQPSQAQLTQPPQQFLQTSRLLHGNPSTQLILSAAFPLQQSTFPQSHHQQHQSQQQQQLSRHRTDSLPDPSKVQPQ	-0.2095
CREB5 (protein, UniProt Q02930 1-508, looked up) Cyclic AMP-responsive …: MIYEESKMNLEQERPFVCSAPGCSQRFPTEDHLMIHRHKHEMTLKFPSIKTDNMLSDQTPTPTRFLKNCEEVGLFSELDCSLEHEFRKAQEEESSKRNISMHNAVGGAMTGPGTHQLSSARLPNHDTNVVIQQAMPSPQSSSVITQAPSTNRQIGPVPGSLSSLLHLHNRQRQPMPASMPGTLPNPTMPGSSAVLMPMERQMSVNSSIMGMQGPNLSNPCASPQVQPMHSEAKMRLKAALTHHPAAMSNGNMNTMGHMMEMMGSRQDQTPHHHMHSHPHQHQTLPPHHPYPHQHQHPAHHPHPQPHHQQNHPHHHSHSHLHAHPAHHQTSPHPPLHTGNQAQVSPATQQMQPTQTIQPPQPTGGRRRRVVDEDPDERRRKFLERNRAAATRCRQKRKVWVMSLEKKAEELTQTNMQLQNEVSMLKNEVAQLKQLLLTHKDCPITAMQKESQGYLSPESSPPASPVPACSQQQVIQHNTITTSSSVSEVVGSSTLSQLTTHRTDLNPIL	-0.7141
CREBL2 (protein, UniProt O60519 1-120, looked up) cAMP-responsive …: MDDSKVVGGKVKKPGKRGRKPAKIDLKAKLERSRQSARECRARKKLRYQYLEELVSSRERAICALREELEMYKQWCMAMDQGKIPSEIKALLTGEEQNKSQQNSSRHTKAGKTDANSNSW	0.3406
ABT1 (protein, UniProt Q9ULW3 1-272, looked up) Activator of basal …: MEAEESEKAATEQEPLEGTEQTLDAEEEQEESEEAACGSKKRVVPGIVYLGHIPPRFRPLHVRNLLSAYGEVGRVFFQAEDRFVRRKKKAAAAAGGKKRSYTKDYTEGWVEFRDKRIAKRVAASLHNTPMGARRRSPFRYDLWNLKYLHRFTWSHLSEHLAFERQVRRQRLRAEVAQAKRETDFYLQSVERGQRFLAADGDPARPDGSWTFAQRPTEQELRARKAARPGGRERARLATAQDKARSNKGLLARIFGAPPPSESMEGPSLVRDS	-0.3156

Source: paper PMC11574045, “A cofactor-induced repressive type of transcription factor condensation can be induced by synthetic peptides to suppress tumorigenesis” (The EMBO Journal, 2024)
